Data reported in patent publication US20230100941A1, “MOLECULES TARGETING MUTANT RAS PROTEIN” (AELIN THERAPEUTICS, priority 2020, published 2023).
Ends that are not written are not given here.

Key:
G12D mutant KRAS = target: T1, G12D mutant KRAS (Homo sapiens, UniProt P01116, G12D); test: In vitro translation assay with streptavidin pull-down of biotinylated pept-ins, Western blot for KRAS; assay type: binding; conditions: 10 μM biotinylated pept-in
T1 construct: made in house; host or cells: cell-free: PURExpress In Vitro Protein Synthesis Kit (New England Biolabs), linear T7 PCR template
Protocol: (§1) In vitro translation assays were performed using the PURExpress® In Vitro Protein Synthesis Kit (New England Biolabs) according to the manufacturer's instructions. Briefly, linear DNA fragments containing T7 promotor and terminator sequences flanking the KRAS coding sequence were generated using PCR and purified using the MinElute PCR Purification Kit (Qiagen). 250 ng of linear DNA was subsequently used for the in vitro translation reaction, which was performed for 2 hours at 37° C. with shaking (1000 rpm). Indicated biotinylated pept-ins were mixed in the translation reactions from a 5 mM stock solution in 6M Urea to a final concentration of 10 μM. Upon completion of the translation reaction, biotinylated pept-ins were captured from the reaction mix using Streptavidin coated beads (Pierce) during 90 min at room temperature. Beads were next washed with TBS containing 0.1% Tween 20 and bound proteins were finally boiled off in 1×SDS loading dye (Bio-Rad) in TBS buffer. Proteins were resolved using Any kD 15-well Mini-PROTEAN gels (Bio-Rad) during SDS-PAGE and probed for KRAS after Western blotting using a mouse monoclonal KRAS-specific antibody (SC-30, Santa Cruz Biotechnology), which was detected with an HRP-coupled anti-mouse secondary antibody using chemiluminescence on a Bio-Rad Chemidoc MP imaging instrument.
(§2) To mimic this in vitro, we devised an in vitro translation setup producing either wild-type or mutant (G12V, G12C, G12D or G13D) KRAS in the presence of biotinylated RAS-targeting pept-ins. This allowed us to perform a streptavidin pull-down to capture the biotinylated pept-ins from the translation reaction and perform SDS-PAGE and Western blotting to probe the pulled-down fraction for the presence of KRAS. The biotinylated version of pept-in 04-004-N001, i.e. 04-004-N011, which harbours an APR window sequence derived from a wild-type APR, is predicted to target all RAS proteins independently from their mutation status.

KRAS wild-type = target: T2, KRAS wild-type (Homo sapiens, UniProt P01116); test: as above; assay type: binding; conditions: 10 μM biotinylated pept-in
T2 construct: made in house; host or cells: cell-free: PURExpress In Vitro Protein Synthesis Kit (New England Biolabs), linear T7 PCR template
Protocol: as §1, §2

G13D mutant KRAS = target: T3, G13D mutant KRAS (Homo sapiens, UniProt P01116, G13D); test: as above; assay type: binding; conditions: 10 μM biotinylated pept-in
T3 construct: made in house; host or cells: cell-free: PURExpress In Vitro Protein Synthesis Kit (New England Biolabs), linear T7 PCR template
Protocol: as §1, §2

G12C mutant KRAS = target: T4, G12C mutant KRAS (Homo sapiens, UniProt P01116, G12C); test: as above; assay type: binding; conditions: 10 μM biotinylated pept-in
T4 construct: made in house; host or cells: cell-free: PURExpress In Vitro Protein Synthesis Kit (New England Biolabs), linear T7 PCR template
Protocol: as §1, §2

G12V mutant KRAS = target: T5, G12V mutant KRAS (Homo sapiens, UniProt P01116, G12V); test: as above; assay type: binding; conditions: 10 μM biotinylated pept-in
T5 construct: made in house; host or cells: cell-free: PURExpress In Vitro Protein Synthesis Kit (New England Biolabs), linear T7 PCR template
Protocol: as §1, §2

[1] = target: T6, mutant G12V KRAS in RASless MEFs (Homo sapiens, UniProt P01116, G12V); test: Cellular co-immunoprecipitation assay in RASless MEFs; assay type: cell-based, mouse; conditions: 25 μM biotinylated pept-in, 16 hours
T6 construct: host or cells: RASless mouse embryonic fibroblasts (HRAS/NRAS-null, endogenous KRAS removed)
Protocol: (§3) Cellular co-immunoprecipitation assays were performed using either KRAS wild-type or mutant G12V expressing RASless MEFs (see elsewhere) or human NCI-H441 lung adenocarcinoma tumor cells and N-terminally biotinylated pept-ins. Cells were seeded at a density of 300,000 cells in a clear 6-well plate (Cellstar, Greiner). One day after seeding, cells were treated with indicated pept-ins at a final concentration of 25 μM and incubated for […]. Next, cells were lysed with NP-40 lysis buffer (150 mM NaCl, 50 mM Tris HC1 pH8, 1% IGEPAL(NP40), 1xHalt phosphatase/protease inhibitors (Thermo), 1U/μl Universal Nuclease (Pierce)) and biotinylated pept-ins were captured with streptavidin-coated magnetic beads (Pierce) during 1 hours at room temperature. Beads were washed with NP40 lysis buffer at least 3 times, after which bound proteins were boiled off in 1× SDS loading dye (Bio-Rad) in NP40 lysis buffer. Proteins were resolved using Any kD 15-well Mini-PROTEAN gels (Bio-Rad) during SDS-PAGE and probed for KRAS after Western blotting using a rabbit polyclonal KRAS-specific antibody (12063-1-AP, Proteintech).
(§4) To this end, relevant MEF cells were treated with 25 μM biotinylated pept-ins overnight (16 hours). Next, cells were lysed, and pept-ins were immunoprecipitated from the lysates using streptavidin-coated beads. […]

[2] = target: T7, wild-type KRAS in RASless MEFs (Homo sapiens, UniProt P01116); test: as above; assay type: cell-based, mouse; conditions: 25 μM biotinylated pept-in, 16 hours
T7 construct: host or cells: RASless mouse embryonic fibroblasts (HRAS/NRAS-null, endogenous KRAS removed)
Protocol: as §3, §4

[3] = system: HeLa cell line overexpressing mCherry-tagged KRAS G12V; test: Cellular fluorescent imaging of FITC-labelled pept-ins; assay type: cell-based, human; conditions: 75 min after treatment
Protocol: Fluorescent cellular imaging was performed using HeLa cells that were transduced with lentiviral particles carrying a construct expressing KRAS G12V labeled N-terminally with mCherry. Cells were seeded in a black μclear® Cellstar® F-bottom 96-well plates (Greiner) in 100 μL full growth medium. […] Next, cells were fixed, washed and counterstained with the nuclear dye NucBlue™ (containing Hoechst 33342). Images were captured on a Leica confocal microscope.
To complement the co-immunoprecipitation approach, we also used a cellular imaging approach to show target engagement. To this end, we generated a HeLa cell line overexpressing mCherry-tagged KRAS G12V and FITC-labelled versions of the RAS-targeting pept-ins.

pull-down of G12D mutant KRAS (G12D mutant KRAS) | pull-down of KRAS wild-type (KRAS wild-type) | pull-down of G13D mutant KRAS (G13D mutant KRAS) | pull-down of G12C mutant KRAS (G12C mutant KRAS) | pull-down of G12V mutant KRAS (G12V mutant KRAS) | Substance | co-precipitation of mutant G12V KRAS [1] | co-precipitation of wild-type KRAS [2] | association with mCherry-labelled KRAS (inclusion-like perinuclear structures) [3]
less efficient | efficient pull-down | less efficient | efficient pull-down | efficient pull-down | 04-004-N011: biotinylated version of pept-in 04-004-N001 (KLSVFAIKGSKLSVFAIK; also: biotinylated, site not given here) | appeared to precipitate both wild-type and mutant G12V KRAS well | appeared to precipitate both wild-type and mutant G12V KRAS well | –
– | – | – | – | – | 04-015-N032: FITC-labelled version of pept-in 04-015-N001 (KVVVGAVGKGSKVVVGAVGK; also: FITC-labelled, site not given here) | – | – | associates with mCherry-labelled KRAS
